# Measured values published in patent US20020064828A1.
# Target: full-length human presenilin 2 (PS2) expressed in HeLa cells (human) (UniProt P49810)
# Assay: cell-based or functional assay
row,Substance,"cell death (floating HeLa cells), fold, on coexpression with PS2"
1,calmyrin-EF-C mutant (E172Q) (from UniProt Q99828 2-191),1.05 fold
2,"calmyrin-MYR mutant (G2A, myristoylation-deficient calmyrin) (from UniProt Q99828 3-191)",< 2.09 fold
3,calmyrin-EF-N mutant (D127N) (from UniProt Q99828 2-191),1 fold
